Measurements: paper PMC2839002

Molecular target: YFP-SmB′ (UniProt P14678)
Assay: co-IP

coilin, endogenous in HeLa (from UniProt P38432 1-576) (natural protein)
fold coilin recovered with anti-GFP relative to NMS: 4.5 fold
